Measurements as given in PMC5053885.
pKd: −log10 of the molar value.

Molecular target: Karyopherin-β2 (human) (UniProt Q92973)
Test: ITC

UniProt Q92973, sequence (Q92973 9-898): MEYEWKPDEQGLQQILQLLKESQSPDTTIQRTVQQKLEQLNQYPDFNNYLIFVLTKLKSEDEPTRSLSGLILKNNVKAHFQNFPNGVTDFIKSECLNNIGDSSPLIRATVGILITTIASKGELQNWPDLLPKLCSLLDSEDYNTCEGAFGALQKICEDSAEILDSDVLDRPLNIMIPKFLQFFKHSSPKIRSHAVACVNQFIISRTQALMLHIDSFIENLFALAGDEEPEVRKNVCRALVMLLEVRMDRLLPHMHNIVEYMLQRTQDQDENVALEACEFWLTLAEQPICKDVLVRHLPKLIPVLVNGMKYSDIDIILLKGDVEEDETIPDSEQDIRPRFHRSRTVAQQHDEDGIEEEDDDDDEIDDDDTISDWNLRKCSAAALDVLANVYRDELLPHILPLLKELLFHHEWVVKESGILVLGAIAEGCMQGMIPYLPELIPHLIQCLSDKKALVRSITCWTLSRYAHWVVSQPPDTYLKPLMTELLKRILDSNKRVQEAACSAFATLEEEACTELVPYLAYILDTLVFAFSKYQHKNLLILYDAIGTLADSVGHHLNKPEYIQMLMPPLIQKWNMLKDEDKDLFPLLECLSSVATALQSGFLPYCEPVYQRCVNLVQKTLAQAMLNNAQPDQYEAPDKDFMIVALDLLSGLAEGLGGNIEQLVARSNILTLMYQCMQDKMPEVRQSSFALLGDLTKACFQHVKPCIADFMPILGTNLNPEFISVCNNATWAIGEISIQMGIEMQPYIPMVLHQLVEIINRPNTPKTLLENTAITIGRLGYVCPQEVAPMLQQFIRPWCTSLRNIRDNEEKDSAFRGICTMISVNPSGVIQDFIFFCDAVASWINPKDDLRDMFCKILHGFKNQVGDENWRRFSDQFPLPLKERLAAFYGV

pKd | Substance
6.91 | MBP-H3 Tail(1–47) R26A (from UniProt P68431 2-48) (domain or fragment)
6.92 | MBP-H3 Tail(1–47) K23A, R26A, K27A (from UniProt P68431 2-48) (domain or fragment)
6.88 | MBP-H3 Tail(1–47) K27A (from UniProt P68431 2-48) (domain or fragment)
6.83 | MBP-H3 Tail(1–47) K23A (from UniProt P68431 2-48) (domain or fragment)
6.92 | MBP-H3 Tail(1–47) K18A (from UniProt P68431 2-48) (domain or fragment)
7.11 | MBP-H3 Tail(1–47) wild-type (from UniProt P68431 2-48) (domain or fragment)
6.41 | MBP-H3 Tail(1–47) R17A (from UniProt P68431 2-48) (domain or fragment)
